Here are results for four molecules from paper PMC5915351.

The labels stand for the following.
B1: BmbD (YcaO protein, thiazoline-forming), maltose-binding protein fusion (enzyme)
chain: MREATATECELREVVHRSYPSERTVTVRCTVRPAEGSAQADGYGTATTEAVARAKALSEAVERLVACTPFATVARPPTACADPGTGSGPVPPFPAAGVRTAPEGCAGRVYRPLTGGGPRRVPLYWSSPWTAGAELRAGTLTAAEARLSSTVGWAVAPTPEGALRGALLELTELIDYGVFLHRRLAGPARRPSAGDRTLVVPLGGIGRTPAVLAVAYGRGRLMPATGLGCGATRGEATDRALLELAQAETMWRSNPTAEPAERFFLRRFERWPLLARCATLDFDLPDPRDPPARSGPAGGPGPYDDGPCPASPLEELEAGGIRVWADSGAVDISGPDIPRTRLCFAHVVSDPQPLLGLVRAGIPVFDTGEVRRTLDPSRRPADRPADRGGHRDRSADRGPARRGHEGRRSA
B2: BmbE (YcaO protein, macrolactamidine-forming), maltose-binding protein fusion (enzyme)
chain: MTRPADPQTAPQTEAATETDPLTAVLLDGATKEDVPPERETDIRQALASVGDWLAAEGLTADIRKYGIESAPTYEVRLSEASGALCSRSSGKGLGHRSMASALFESAEHYHLDWRRDPRASEAEFRPGREIAEQATARRSALLGRLGQIMPDAPVLTRTYRPVEEALTGRAGDGEADGPHRHPVFLRDGGYRNWPHPDDDRSFQPLWHYTSSAGYAAGATRHEALVHAVNELIERDAWSYQLARSYFGLPGEGPELRVVEHGTLPAELRELTRTVEEVRGAPVLIVDITCDTGVPAYVVCDARSREDVRLIGSGASPVRTYAVQRALLEYLQVRTMFENGPVDADTEAGQIGTALARYPRHLAAARFDIHRLPHESTAFEADDGLPAATGPERLLRHLVDRLRESGVEAHHRVLTPPGPVTVVDVVAPGLEMFDKARAGYPVLPTGRLGERLRPRGDGGGARR

This experiment deals with BmbC-C8S/S43C, fluorescein-labelled (bottromycin precursor peptide double variant) (Streptomyces bottropensis). The experiment can be described thus: fluorescence polarisation. (Polarisation of emitted light reports the rotation of a fluorescent probe.)
As usually defined, the Kd is the free concentration of one partner at which half of the binding sites on the other are occupied at equilibrium, for simple one-to-one binding. “RRE domain excised from BmbB (radical-SAM methyltransferase) (domain or fragment)” returned a Kd of 876 nM.

Regarding “RRE domain excised from BmbF (radical-SAM methyltransferase) (domain or fragment)”, the equilibrium dissociation constant (Kd) was 597 nM.

On to B1, for which the Kd is > 50000 nM.

For the molecule B2, the dissociation constant (Kd) was > 50000 nM.
